# In article PMC13397619:
# B1: NLV2 TCR alpha chain (CDR3α only) (parent)
# chain: AGPMKTSYDKVI
# partner: MLVPMVATV
# Variants of: B1
# Test: T-Switch: Jurkat TCRβ−/− cells expressing a CDR3 saturation-mutagenesis library, stained with two peptide-HLA-A*02:01 tetramers (original and novel peptide) plus anti-CD3, FACS-sorted into four gates, gDNA sequenced
# Settings: with HLA-A*02:01 with peptide … (NLV 3-1, the novel peptide), tetramers 1 µg/mL, 30 min on ice, SP, DP and SW gates expanded about 10 days between rounds ('two to three rounds of selection' in the Methods), gate SW: higher = more of the variant in the gate that binds the novel peptide and not the original one = switched binding. Fold enrichment of the CDR3 variant in one FACS gate of a two-tetramer stain, unresolved parent, parent is a CDR3 fragment, scale: fold enrichment, numbering: sequential-on-construct, sequence starts at 1
row,Variant,enrichment
1,[…] (CDR3 as printed); P3G derived by comparing it with the table's wild-type CDR3 AGPMKTSYDKVI,0
2,[…] (CDR3 as printed); M4L derived by comparing it with the table's wild-type CDR3 AGPMKTSYDKVI,0
3,[…] (CDR3 as printed); V11S derived by comparing it with the table's wild-type CDR3 AGPMKTSYDKVI,0
4,[…] (CDR3 as printed); T6L derived by comparing it with the table's wild-type CDR3 AGPMKTSYDKVI,0
5,[…] (CDR3 as printed); M4S derived by comparing it with the table's wild-type CDR3 AGPMKTSYDKVI,0
6,[…] (CDR3 as printed); V11I derived by comparing it with the table's wild-type CDR3 AGPMKTSYDKVI,0
7,[…] (CDR3 as printed); V11D derived by comparing it with the table's wild-type CDR3 AGPMKTSYDKVI,0
8,[…] (CDR3 as printed); M4T derived by comparing it with the table's wild-type CDR3 AGPMKTSYDKVI,0
9,[…] (CDR3 as printed); Y8F derived by comparing it with the table's wild-type CDR3 AGPMKTSYDKVI,0
10,[…] (CDR3 as printed); M4Q derived by comparing it with the table's wild-type CDR3 AGPMKTSYDKVI,0
11,[…] (CDR3 as printed); S7E derived by comparing it with the table's wild-type CDR3 AGPMKTSYDKVI,0
12,[…] (CDR3 as printed); M4R derived by comparing it with the table's wild-type CDR3 AGPMKTSYDKVI,0
13,[…] (CDR3 as printed); M4Y derived by comparing it with the table's wild-type CDR3 AGPMKTSYDKVI,0
14,[…] (CDR3 as printed); V11C derived by comparing it with the table's wild-type CDR3 AGPMKTSYDKVI,0
15,[…] (CDR3 as printed); P3L derived by comparing it with the table's wild-type CDR3 AGPMKTSYDKVI,0
16,[…] (CDR3 as printed); Y8T derived by comparing it with the table's wild-type CDR3 AGPMKTSYDKVI,0
17,[…] (CDR3 as printed); Y8A derived by comparing it with the table's wild-type CDR3 AGPMKTSYDKVI,77.9
18,[…] (CDR3 as printed); S7F derived by comparing it with the table's wild-type CDR3 AGPMKTSYDKVI,0
19,[…] (CDR3 as printed); T6N derived by comparing it with the table's wild-type CDR3 AGPMKTSYDKVI,0
20,[…] (CDR3 as printed); S7R derived by comparing it with the table's wild-type CDR3 AGPMKTSYDKVI,0
21,[…] (CDR3 as printed); V11F derived by comparing it with the table's wild-type CDR3 AGPMKTSYDKVI,0
22,[…] (CDR3 as printed); S7A derived by comparing it with the table's wild-type CDR3 AGPMKTSYDKVI,0
23,[…] (CDR3 as printed); M4N derived by comparing it with the table's wild-type CDR3 AGPMKTSYDKVI,0
24,[…] (CDR3 as printed); S7K derived by comparing it with the table's wild-type CDR3 AGPMKTSYDKVI,0
25,[…] (CDR3 as printed); V11R derived by comparing it with the table's wild-type CDR3 AGPMKTSYDKVI,0
26,[…] (CDR3 as printed); Y8E derived by comparing it with the table's wild-type CDR3 AGPMKTSYDKVI,52.6
27,[…] (CDR3 as printed); Y8M derived by comparing it with the table's wild-type CDR3 AGPMKTSYDKVI,0

row,Variant,enrichment
1,[…] (CDR3 as printed); Y8N derived by comparing it with the table's wild-type CDR3 AGPMKTSYDKVI,0
2,[…] (CDR3 as printed); P3N derived by comparing it with the table's wild-type CDR3 AGPMKTSYDKVI,0
3,[…] (CDR3 as printed); Y8I derived by comparing it with the table's wild-type CDR3 AGPMKTSYDKVI,0
4,[…] (CDR3 as printed); Y8S derived by comparing it with the table's wild-type CDR3 AGPMKTSYDKVI,0
5,[…] (CDR3 as printed); V11A derived by comparing it with the table's wild-type CDR3 AGPMKTSYDKVI,0
6,[…] (CDR3 as printed); Y8H derived by comparing it with the table's wild-type CDR3 AGPMKTSYDKVI,0
7,[…] (CDR3 as printed); T6E derived by comparing it with the table's wild-type CDR3 AGPMKTSYDKVI,0
8,[…] (CDR3 as printed); P3D derived by comparing it with the table's wild-type CDR3 AGPMKTSYDKVI,0
9,[…] (CDR3 as printed); P3E derived by comparing it with the table's wild-type CDR3 AGPMKTSYDKVI,0
10,[…] (CDR3 as printed); S7T derived by comparing it with the table's wild-type CDR3 AGPMKTSYDKVI,0
11,[…] (CDR3 as printed); Y8P derived by comparing it with the table's wild-type CDR3 AGPMKTSYDKVI,0
12,[…] (CDR3 as printed); Y8V derived by comparing it with the table's wild-type CDR3 AGPMKTSYDKVI,0
13,[…] (CDR3 as printed); V11N derived by comparing it with the table's wild-type CDR3 AGPMKTSYDKVI,0
14,[…] (CDR3 as printed); V11G derived by comparing it with the table's wild-type CDR3 AGPMKTSYDKVI,0
15,[…] (CDR3 as printed); Y8K derived by comparing it with the table's wild-type CDR3 AGPMKTSYDKVI,0
16,[…] (CDR3 as printed); S7Q derived by comparing it with the table's wild-type CDR3 AGPMKTSYDKVI,0
17,[…] (CDR3 as printed); T6C derived by comparing it with the table's wild-type CDR3 AGPMKTSYDKVI,0
18,[…] (CDR3 as printed); S7L derived by comparing it with the table's wild-type CDR3 AGPMKTSYDKVI,0
19,[…] (CDR3 as printed); P3K derived by comparing it with the table's wild-type CDR3 AGPMKTSYDKVI,0
20,[…] (CDR3 as printed); P3C derived by comparing it with the table's wild-type CDR3 AGPMKTSYDKVI,0
21,[…] (CDR3 as printed); V11K derived by comparing it with the table's wild-type CDR3 AGPMKTSYDKVI,0
22,[…] (CDR3 as printed); T6P derived by comparing it with the table's wild-type CDR3 AGPMKTSYDKVI,0
23,[…] (CDR3 as printed); V11E derived by comparing it with the table's wild-type CDR3 AGPMKTSYDKVI,0
24,[…] (CDR3 as printed); V11Y derived by comparing it with the table's wild-type CDR3 AGPMKTSYDKVI,0
25,[…] (CDR3 as printed); M4W derived by comparing it with the table's wild-type CDR3 AGPMKTSYDKVI,0
26,[…] (CDR3 as printed); T6F derived by comparing it with the table's wild-type CDR3 AGPMKTSYDKVI,0
27,[…] (CDR3 as printed); P3A derived by comparing it with the table's wild-type CDR3 AGPMKTSYDKVI,0
